Experiments:
[1] = target: T1, mouse Trop-2 (mouse, UniProt Q8BGV3 25-270, limits assumed); experiment: ELISA, similar to Table 24
T1 construct: also called Kactus Cat #TRP-MM121
T1 sequence (looked up): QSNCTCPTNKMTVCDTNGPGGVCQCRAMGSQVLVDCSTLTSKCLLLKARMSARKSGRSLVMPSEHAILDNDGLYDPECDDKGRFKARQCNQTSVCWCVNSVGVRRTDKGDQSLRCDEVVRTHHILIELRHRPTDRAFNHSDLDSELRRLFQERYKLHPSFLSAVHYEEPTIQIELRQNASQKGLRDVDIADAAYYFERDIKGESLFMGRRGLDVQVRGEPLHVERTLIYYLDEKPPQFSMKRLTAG
Procedure: (§1) Purified antibodies were tested by ELISA to confirm their binding and affinity against human and cynomolgus Trop-2-His protein. Briefly, 96-well Maxisorp plates (Nunc) were coated with 100 μl/well of 0.5 μg/ml human (Kactus Cat #TRP-HM121, or Sino Biological, Cat #10428-HO8H) or cynomolgus Trop-2 protein (Kactus Cat #TRP-CM121, or Sino Biological, Cat #90893-CO8H) diluted in 1×PBS (GIBCO) overnight at 4° C. Plates were washed four times with 300 μl/well washing buffer (1×PBST, diluted from 20×PBST (Thermo Scientific) with distilled water)) and then blocked with 300 μl/well of blocking buffer (1×PBST/3% BSA (BSA, Sigma)) for 2 hours at RT on plate shaker at 100 rpm. Plates were washed and added with 100 μl/well of testing antibodies, which were serial diluted with assay buffer (PBST/1% BSA). The antibodies were incubated at room temperature for 2 hours on plate shaker at 100 rpm. Plates were washed. One hundred microliters (100 μl) of 1:10,000 diluted horseradish peroxidase (HRP) conjugated anti-hIgG antibody (Jackson Immuno Research) was added into each well and incubated at room temperature for 1 hour on plate shaker at 100 rpm. Plates were washed and added with 100 μl/well TMB substrate for color development in dark at room temperature for up to 10 minutes. After addition of 50 μl/well of stop solution (1N H₂SO₄), plates were read at 450 nm on a plate reader (SpectraMax M5). EC₅₀ values were calculated using Graphpad Prism. Sacituzumab govitecan, was used as positive control. Anti-HEL.hIgG1 was used as isotype control.
(§2) Similar assays were performed to test whether the exemplary antibodies of the present disclosure bind to human Trop-1 (EpCAM) or mouse Trop-2 (Kactus, Cat #TRP-MM121) or rat Trop-2 (kactus, Cat #TRP_RM121). No binding of the exemplary antibodies of the present disclosure to human Trop-1 (EpCAM) or mouse or rat Trop-2 has been detected.

[2] = target: T2, rat Trop-2 (rat, UniProt Q6P9Z6 25-270, limits assumed); experiment: ELISA, similar to Table 24
T2 sequence (looked up): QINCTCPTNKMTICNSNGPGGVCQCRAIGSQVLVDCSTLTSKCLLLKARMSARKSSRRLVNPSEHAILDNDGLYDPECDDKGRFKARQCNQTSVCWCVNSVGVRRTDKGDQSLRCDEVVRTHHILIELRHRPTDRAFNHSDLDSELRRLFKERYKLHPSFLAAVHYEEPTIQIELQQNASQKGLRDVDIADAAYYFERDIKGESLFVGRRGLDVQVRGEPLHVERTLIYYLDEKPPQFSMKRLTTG
Procedure: as §1, §2

[3] = target: T3, human Trop-2 expressed on cell surface (human, UniProt P09758 27-323); experiment: cell-based or functional assay
T3 sequence (looked up): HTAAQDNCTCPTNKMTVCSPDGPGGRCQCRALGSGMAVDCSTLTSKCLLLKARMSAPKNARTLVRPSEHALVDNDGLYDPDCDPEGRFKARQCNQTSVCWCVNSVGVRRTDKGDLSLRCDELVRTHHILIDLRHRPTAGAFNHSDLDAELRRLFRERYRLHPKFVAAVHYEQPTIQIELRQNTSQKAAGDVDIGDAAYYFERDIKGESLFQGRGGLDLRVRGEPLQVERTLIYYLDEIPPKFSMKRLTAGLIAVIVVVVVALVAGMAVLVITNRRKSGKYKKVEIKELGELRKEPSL

[4] = target: T3, human Trop-2 expressed on cell surface; experiment: flow cytometry, MDA-MB-231-GFP cells
In short: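 Cells at 10⁶/ml in DPBS/1% FBS were incubated on ice for 1 h with antibodies in 1:3 serial dilutions from 15 μg/mL. Detection used PE anti-human Fc (1:400, 30 min on ice) with 7-AAD viability staining, read by flow cytometry. EC₅₀ from binding curves; anti-HEL hIgG1 isotype control.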

[5] = target: T4, human Trop-2-His protein (human, UniProt P09758 27-274); experiment: BLI (Gator Plus), purified Ab on HFC probe
T4 construct: extracellular domain; Assay paragraphs say only 'Trop-2-His'; also called hTrop-2; Kactus Cat #TRP-HM121; not shown: His tag
T4 sequence (looked up): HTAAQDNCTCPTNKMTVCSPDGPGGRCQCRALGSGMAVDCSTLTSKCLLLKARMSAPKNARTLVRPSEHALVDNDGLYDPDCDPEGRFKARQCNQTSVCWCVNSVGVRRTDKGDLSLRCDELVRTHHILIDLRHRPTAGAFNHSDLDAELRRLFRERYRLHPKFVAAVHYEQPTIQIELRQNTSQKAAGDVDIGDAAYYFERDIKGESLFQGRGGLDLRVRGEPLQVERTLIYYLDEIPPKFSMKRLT
Procedure: The affinity of the binding of the exemplary anti-Trop-2 antibodies of the present disclosure were determined. Assay was performed using Gator Plus according to the protocol recommended by Gator Bio Inc.. Briefly, human Trop-2-His (Kactus) was 1:4 fold serially diluted starting at 1 μg/ml. After three times of regeneration and neutralization of HFC probe, 1 μg/ml of antibody to be tested in Q buffer was immobilized onto HFC probe. […] The association and dissociation of human Trop-2-His antigen from antibody was measured on BLI machine Gator Plus. Affinity was calculated using Gator Bio analysis software. Blank control was used for reference subtraction. Sacituzumab govitecan was used as positive control.

B1: 63H3 (antibody, V domains shown)
VH: QEQLKESGGGLVQPGGSLKLSCKASGFDFNSYGVSWVRQAPGKGLEWIAYIYPAFHNAYYANWVNGRFTISSDNAQNTVDLQLNSLTAADTATYFCARDAGGTDYNYNLWGPGTLVTVSS
VL: DVVMTQTPASVEVAVGGTVTLKCQASEDIESYSAWYQQKPGQPPNLLIYEASKLASGVSSRFSGSGYGTEFTLTISGVECADAATYYCQQALTIGNVDNPFGGGSEVVVR
notes: Rabbit-derived clone; LEM construct: VH + rabbit IgG CH1 + human IgG1 CH2-CH3
Q: What does the source list for B1?
A: binding result [1]: no binding; binding result [2]: no binding; EC50 of ADCC (NFAT-CD16 reporter), MCF-7 [3]: 0.17 nM; EC50 of ADCC (NFAT-CD16 reporter), MDA-MB-231 [3]: 0.03 nM; EC50 [4]: 0.02 nM; Kd [5]: 0.03 nM; koff [5]: 2.5e-05 s⁻¹; kon [5]: 766000 M⁻¹ s⁻¹

B2: 66A1 (antibody, V domains shown)
VH: QEQLKESGGGLVQPGGSLKLSCKASGFDFNNYGVSWVRQAPGKGLEWIAYIYPAFHNTYYASWVNGRFTISSHNAQNTLYLQLNSLTAADTATYFCARDAGGTDYAYNLWGPGTLVTVSS
VL: DVVMTQTPASVEAAVGGTVSINCQASEDIESYLAWYQQKPGQPPKLLIYKASTLASGVSSRFKGSGSGKQFTLTISGVECADAATYYCQQVLTIGNVDNPFGGGSEVVVK
notes: as for B1
Q: Does B2 bind [1]?
A: Result: no binding

Q: Does B2 bind [2]?
A: Result: no binding

Q: And the “EC50 of ADCC (NFAT-CD16 reporter), MCF-7” value [3]?
A: The value was 0.22 nM.

Q: And the “EC50 of ADCC (NFAT-CD16 reporter), MDA-MB-231” value [3]?
A: The value was 0.06 nM.

Q: What about the EC50 [4] of the same binder?
A: Its EC50 is 0.01 nM.

Q: What about the Kd [5] of the same binder?
A: Its Kd is 0.25 nM.

Q: And the koff [5]?
A: The koff was 0.000193 s⁻¹.

Q: What about the kon [5] of the same binder?
A: The kon was 788000 M⁻¹ s⁻¹.

B3: 65D5 (antibody, V domains shown)
VH: QEQLKESGGGLVQPGGSLKLSCKASGFDFNAYGVSWVRQAPGKGLEWIAYIYPAFHNTYYATWVNGRFTISSHNAQNTLYLQLNTLTAADTATYFCARDAGTTDYNFNLWGPGTLVTVSS
VL: DIVMTQTPASVSEPVGGTVTIKCQASQSISSYLAWYQQKPGQPPKLLIYEATKLTSGVSSRFSGSGYGTEFTLTISGVECADAATYYCQQALTVGDVDNPFGGGSEVVVK
notes: as for B1
Q: Which results are given for B3?
A: binding result [1]: no binding; binding result [2]: no binding; EC50 of ADCC (NFAT-CD16 reporter), MCF-7 [3]: 0.32 nM; EC50 of ADCC (NFAT-CD16 reporter), MDA-MB-231 [3]: 0.05 nM; EC50 [4]: 0.01 nM; Kd [5]: 1.1 nM; koff [5]: 0.000898 s⁻¹; kon [5]: 819000 M⁻¹ s⁻¹

B4: 5D4-2 (antibody, V domains shown)
VH: QQLEESGGGLVKPEGSLTLTCKGSGFDFSGTYWMWWVRQAPGKGLEWIASIYVGSGSSTYYASWAKGRFTISSTSSTAVTLQATSLTAADTATYFCARGATNNVFMNYFNLWGPGTLVTVSS
VL: FEMTQTPSSVSEPVGGTVTIKCQASEDISSNLGWYQQKPGQPPKLLIYGASTLASGVPSRFKGSGSGTEFTLTISDLEAADAATYYCQTSYYIDDGVNGFGGGTEVVVK
Q: Does B4 bind [1]?
A: Result: no binding

Q: Does B4 bind [2]?
A: Result: no binding

Q: What about the “EC50 of ADCC (NFAT-CD16 reporter), MCF-7” value [3] of the same binder?
A: Its value is 0.52 nM.

Q: And the “EC50 of ADCC (NFAT-CD16 reporter), MDA-MB-231” value [3]?
A: The value was 0.08 nM.

Q: What about the EC50 [4] of the same binder?
A: Its EC50 is 0.04 nM.

Q: What about the Kd [5] of the same binder?
A: Its Kd is 0.12 nM.

Q: What about the koff [5] of the same binder?
A: Its koff is 6e-05 s⁻¹.

Q: What about the kon [5] of the same binder?
A: The kon was 487000 M⁻¹ s⁻¹.

From patent US20250206841A1 (ADEPT THERAPEUTICS, published 2025)
